Measured values published in paper PMC4900678, “The DEAD-box Protein Rok1 Orchestrates 40S and 60S Ribosome Assembly by Promoting the Release of Rrp5 from Pre-40S Ribosomes to Allow for 60S Maturation” (PLoS Biology, 2016).
Each block holds one binder with its values, some of them ahead of it.

How the values were obtained:
Conditions in all cases: both partners purified
[1] = molecular target: T1, full-length Rrp5 (recombinant) (S. cerevisiae, UniProt Q05022 1-1729); experiment: negative-stain single-particle EM reconstruction; 100 pmol Rok1 incubated with Rrp5 in 300 mM NaCl, 10 mM MgCl2, 30 mM MES pH 6.7, 20°C, 2 h; GraFix glycerol/glutaraldehyde gradient; uranyl formate stain
T1 construct: Rrp5, S. cerevisiae, 193 kDa, 12 S1 domains followed by seven TPR repeats; The His6 tag is named only for the Has1 pull-down (His6-Rrp5, His-Rrp5); I take both to be the one Rrp5-FL preparation; also called Rrp5-FL; Rrp5_FL
T1 sequence (Q05022 whole entry, the tested form may be a part): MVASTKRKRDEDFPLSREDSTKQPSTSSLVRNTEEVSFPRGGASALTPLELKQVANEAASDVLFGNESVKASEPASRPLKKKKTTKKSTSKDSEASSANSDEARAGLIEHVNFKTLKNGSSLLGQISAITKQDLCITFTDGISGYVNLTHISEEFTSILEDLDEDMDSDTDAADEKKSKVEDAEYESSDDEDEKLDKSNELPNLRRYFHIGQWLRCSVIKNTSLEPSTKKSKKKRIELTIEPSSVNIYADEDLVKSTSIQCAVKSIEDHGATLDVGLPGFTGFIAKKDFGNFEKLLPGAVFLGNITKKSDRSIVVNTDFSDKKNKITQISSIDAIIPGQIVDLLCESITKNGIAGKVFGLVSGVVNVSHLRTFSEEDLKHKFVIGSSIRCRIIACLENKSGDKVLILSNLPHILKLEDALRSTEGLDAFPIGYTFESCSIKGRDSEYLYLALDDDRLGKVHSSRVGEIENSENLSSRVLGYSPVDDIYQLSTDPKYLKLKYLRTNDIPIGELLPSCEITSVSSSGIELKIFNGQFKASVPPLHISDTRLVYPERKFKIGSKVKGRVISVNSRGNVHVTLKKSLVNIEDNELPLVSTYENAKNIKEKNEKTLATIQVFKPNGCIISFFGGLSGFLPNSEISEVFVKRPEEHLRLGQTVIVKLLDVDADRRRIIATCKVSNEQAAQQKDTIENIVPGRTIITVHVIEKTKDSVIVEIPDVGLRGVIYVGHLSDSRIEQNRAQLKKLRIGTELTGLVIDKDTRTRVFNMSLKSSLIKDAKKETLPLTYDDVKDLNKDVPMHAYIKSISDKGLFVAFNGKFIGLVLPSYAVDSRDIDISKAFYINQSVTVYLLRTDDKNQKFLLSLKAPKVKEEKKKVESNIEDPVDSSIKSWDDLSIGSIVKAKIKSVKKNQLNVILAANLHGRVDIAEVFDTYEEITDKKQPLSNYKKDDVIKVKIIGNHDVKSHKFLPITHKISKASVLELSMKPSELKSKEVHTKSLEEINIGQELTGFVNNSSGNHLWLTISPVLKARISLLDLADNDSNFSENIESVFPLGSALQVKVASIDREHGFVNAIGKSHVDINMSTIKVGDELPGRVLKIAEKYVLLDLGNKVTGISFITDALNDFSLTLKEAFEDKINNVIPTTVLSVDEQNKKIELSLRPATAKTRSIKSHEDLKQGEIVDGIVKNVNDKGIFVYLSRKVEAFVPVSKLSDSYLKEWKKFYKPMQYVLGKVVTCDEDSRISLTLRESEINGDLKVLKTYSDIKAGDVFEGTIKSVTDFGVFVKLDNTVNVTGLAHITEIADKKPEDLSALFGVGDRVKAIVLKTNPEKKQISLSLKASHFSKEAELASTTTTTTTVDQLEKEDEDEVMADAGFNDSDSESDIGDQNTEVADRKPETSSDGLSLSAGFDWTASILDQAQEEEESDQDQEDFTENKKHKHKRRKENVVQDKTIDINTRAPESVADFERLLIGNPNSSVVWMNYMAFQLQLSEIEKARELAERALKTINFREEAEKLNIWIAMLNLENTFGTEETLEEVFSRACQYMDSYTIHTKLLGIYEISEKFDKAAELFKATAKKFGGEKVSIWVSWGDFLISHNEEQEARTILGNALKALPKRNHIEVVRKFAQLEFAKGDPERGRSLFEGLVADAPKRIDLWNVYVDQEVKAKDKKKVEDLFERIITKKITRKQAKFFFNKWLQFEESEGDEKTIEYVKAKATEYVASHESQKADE

[2] = molecular target: T1, full-length Rrp5 (recombinant); experiment: pull-down; 10 uM FL Rrp5 or Rrp5_TPR2+7 with 15 uM MBP-Rok1 (or MBP) on amylose resin; 150 mM NaCl, 30 mM HEPES/NaOH pH 7.5, 5% glycerol; 4°C; eluted with 20 mM maltose
[3] = molecular target: T1, full-length Rrp5 (recombinant); experiment: pull-down; 5 uM FL Rrp5 or Rrp5 fragments with 3 uM GST-Rok1 (or GST) on GSH sepharose; 150 mM NaCl, 30 mM HEPES/NaOH pH 7.5, 5% glycerol; 4°C; eluted with 20 mM reduced glutathione
[4] = molecular target: T1, full-length Rrp5 (recombinant); experiment: pull-down; 5 uM Has1 with 3 uM His-Rrp5 on Ni-NTA resin, pull-down buffer, 4°C; eluted with 300 mM imidazole

- binding result [1]: binds
B1: Rok1 (recombinant) (enzyme, S. cerevisiae, UniProt P45818 1-564, looked up)
chain: MDIFRVLTRGASVKKESGPKAKAADYSVINGNDENHKEDNNESQIVKELDFFRNKRIISKVEDDREKTTENDSPNKEEKSGNDDGLIKPVITNTVEASALRKSYKGNVSGIDIPLPIGSFEDLISRFSFDKRLLNNLIENGFTEPTPIQCECIPVALNNRDVLACGPTGSGKTLAFLIPLVQQIIDDKQTAGLKGLIISPTKELANQIFIECFKLSYKIFLEKKRPLQVALLSKSLGAKLKNKVVSDKKYDIIISTPLRLIDVVKNEALDLSKVKHLIFDEADKLFDKTFVEQSDDILSACREPSLRKAMFSATIPSNVEEIAQSIMMDPVRVIIGHKEAANTNIEQKLIFCGNEEGKLIAIRQLVQEGEFKPPIIIFLESITRAKALYHELMYDRINVDVIHAERTALQRDRIIERFKTGELWCLICTDVLARGIDFKGVNLVINYDVPGSSQAYVHRIGRTGRGGRSGKAITFYTKQDSVAIKPIINVMKQSGCEVSEWMDKMAKMTRKEKESIKNGKAHKERKQITTVPKMDKAKRRRQQEMIAASKRRKNEELSKKHFSK
notes: Rok1, DEAD-box protein, 64 kDa; Named Rok1 without a tag, in contrast to MBP-Rok1 and GST-Rok1; also called recombinant Rok1

- binding result [2]: binds
B2: maltose binding protein (MBP)-tagged Rok1 (enzyme, S. cerevisiae, UniProt P45818 1-564, looked up)
chain: B1 chain
notes: Rok1, DEAD-box protein; also called MBP-Rok1; source: E. coli Rosetta2 (DE3), recombinant; purification not described here

- binding result [3]: binds
B3: glutathione S-transferase (GST)-tagged Rok1 (enzyme, S. cerevisiae, UniProt P45818 1-564, looked up)
chain: B1 chain
notes: Rok1, DEAD-box protein; also called GST-Rok1; source: E. coli Rosetta2 (DE3), recombinant; purification not described here

- binding result [4]: binds
B4: Has1 (recombinant) (enzyme)
chain: not shown
notes: Has1, DEAD-box protein, HAS1 gene cloned from yeast into pSV272 as a TEV-cleavable His6-MBP fusion; also called recombinant Has1; source: E. coli Rosetta2 (DE3), purified (Ni-NTA, MonoS, Superdex S-200)
